This is an account of results in US20140322210A1.

Where two headings read alike, the source gives them in different places.

For orientation: Kd means a measure of binding affinity in units of concentration. Lower therefore signals higher affinity.

The target of experiment [1] is Hemagglutinin of H4N4 A/Bufflehead (influenza A virus). The experiment can be described thus: cell-based or functional assay.
Experiment [2] concerns the target Hemagglutinin of H3N2 A/Wisconsin/67/2005 (influenza A virus). The experiment can be described thus: cell-based or functional assay.
Experiment [3] addresses Hemagglutinin of H3N2 A/Hong Kong/8/68 (influenza A virus). The experiment can be described thus: cell-based or functional assay.
Experiment [4] deals with Hemagglutinin of H3N2 A/Perth/16/2009 (influenza A virus). Put plainly: cell-based or functional assay.
Experiment [5] concerns the target Hemagglutinin of H3N2 A/New York/55/2004 (influenza A virus). Put plainly: cell-based or functional assay.
The target of experiment [6] is Hemagglutinin of H7N7 A/Netherlands/219/03 (influenza A virus). The experiment can be described thus: cell-based or functional assay.
Experiment [7] addresses Hemagglutinin of H1N1 A/CA/07/09 (influenza A virus). The experiment can be described thus: cell-based or functional assay.
Experiment [8] concerns the target Hemagglutinin of H5N1 A/VN/1204 (influenza A virus). The experiment can be described thus: cell-based or functional assay.
Experiment [9] deals with Hemagglutinin of H1N1 A/CA/07/09 (influenza A virus). The experiment can be described thus: affinity, method not named in Table 3.
Experiment [10] has as its target Hemagglutinin of H5N1 A/VN/1204 (influenza A virus). Put plainly: affinity, method not named in Table 3.
The target of experiment [11] is Hemagglutinin of H2N2 A/Mallard/MN/2008 (influenza A virus). Put plainly: cell-based or functional assay.
The target of experiment [12] is Hemagglutinin of H9N2 Mallard/MN/98 (influenza A virus). The experiment can be described thus: cell-based or functional assay.
The target of experiment [13] is Hemagglutinin of H1N1 A/CA/07/09 (influenza A virus). Put plainly: cell-based or functional assay. This is another data set of the same source.
Experiment [14] has as its target Hemagglutinin of H5N1 A/VN/1204 (influenza A virus). Put plainly: cell-based or functional assay. The source holds these as a separate data set.
Experiment [15] concerns the target Influenza A hemagglutinin of clade H7 (strain not stated) (influenza A virus). Put plainly: FortéBio biolayer interferometry. Background: BLI is a label-free optical method that tracks binding on a fibre tip over time.
Experiment [16] has as its target Influenza A hemagglutinin of clade H1 (strain not stated) (influenza A virus). Put plainly: FortéBio biolayer interferometry.
In experiment [17] the target is Influenza A hemagglutinin of clade H5 (strain not stated) (influenza A virus). The experiment can be described thus: FortéBio biolayer interferometry.
Experiment [18] deals with Influenza A hemagglutinin of clade H9 (strain not stated) (influenza A virus). The experiment can be described thus: FortéBio biolayer interferometry.
Experiment [19] deals with Hemagglutinin of H5 Vietnam/1203/2004 (influenza A virus). Put plainly: FortéBio.
Experiment [20] has as its target Hemagglutinin of H1N1 A/CA/07/09 (influenza A virus). The experiment can be described thus: FortéBio.
For experiment [21], the target named is Influenza A hemagglutinin of clade H3 (strain not stated) (influenza A virus). Put plainly: FortéBio biolayer interferometry.
Experiment [22] addresses Hemagglutinin of H7N3 A/Canada/rv444/04 (influenza A virus). Put plainly: affinity, method not named in Table 3.
The target in experiment [23] is Hemagglutinin of H3N2 A/Hong Kong/8/68 (influenza A virus). Put plainly: affinity, method not named in Table 3.
Experiment [24] addresses Hemagglutinin of H3N2 A/Perth/16/2009 (influenza A virus). The experiment can be described thus: affinity, method not named in Table 3.
Experiment [25] concerns the target Hemagglutinin of H3N2 A/New York/55/2004 (influenza A virus). Put plainly: affinity, method not named in Table 3.
The target of experiment [26] is Hemagglutinin of H7N7 A/Netherlands/219/03 (influenza A virus). The experiment can be described thus: affinity, method not named in Table 3.
For experiment [27], the target named is Hemagglutinin of H4N4 A/Bufflehead (influenza A virus). Put plainly: cell-based or functional assay. This is another data set of the same source.
Experiment [28] deals with Hemagglutinin of H3N2 A/Wisconsin/67/2005 (influenza A virus). The experiment can be described thus: cell-based or functional assay. The source holds these as a separate data set.
Experiment [29] deals with Hemagglutinin of H7N3 A/Canada/rv444/04 (influenza A virus). Put plainly: cell-based or functional assay.
For experiment [30], the target named is Hemagglutinin of H3 A/Phillipines/2/82 x-79 (influenza A virus). The experiment can be described thus: cell-based or functional assay.
In experiment [31] the target is Hemagglutinin of H3 A/SW/MN/02719 (influenza A virus). The experiment can be described thus: cell-based or functional assay.
The target in experiment [32] is Hemagglutinin of H3N2 A/Hong Kong/8/68 (influenza A virus). The experiment can be described thus: cell-based or functional assay. The source holds these as a separate data set.
The target of experiment [33] is Hemagglutinin of H7 A/Ruddy Turnstone/A106-892 (influenza A virus). Put plainly: cell-based or functional assay.
The target of experiment [34] is Hemagglutinin of H3N2 A/Perth/16/2009 (influenza A virus). The experiment can be described thus: cell-based or functional assay. This is another data set of the same source.
For experiment [35], the target named is Hemagglutinin of H7 A/Redknot/NJ/1523470/06 (influenza A virus). The experiment can be described thus: cell-based or functional assay.
Experiment [36] has as its target Hemagglutinin of H3N2 A/New York/55/2004 (influenza A virus). Put plainly: cell-based or functional assay. The source holds these as a separate data set.
Experiment [37] addresses Hemagglutinin of H10N7 A/Northern Shoveler (influenza A virus). The experiment can be described thus: cell-based or functional assay.
Experiment [38] addresses Hemagglutinin of H7 A/Sanderling/A106-125 (influenza A virus). Put plainly: cell-based or functional assay.
For experiment [39], the target named is Hemagglutinin of H7N7 A/Netherlands/219/03 (influenza A virus). The experiment can be described thus: cell-based or functional assay. The source holds these as a separate data set.
The target of experiment [40] is Hemagglutinin of H3 A/Udorn/307/1976 (influenza A virus). Put plainly: cell-based or functional assay.
For experiment [41], the target named is Hemagglutinin of H3N2 A/Hong Kong/8/68 (influenza A virus). Put plainly: FortéBio.
For experiment [42], the target named is Hemagglutinin of H3N2 A/Perth/16/2009 (influenza A virus). Put plainly: FortéBio.
Experiment [43] has as its target Hemagglutinin of H7N7 A/Netherlands/219/03 (influenza A virus). The experiment can be described thus: FortéBio.

For the molecule “CR8020 (mAb cloned from Crucell patents) (antibody)”, the EC50 for in vitro neutralization in [1] was more than 40 µg/mL; in experiment [2], 3.5 µg/mL; in [3], 7.6 µg/mL; in experiment [4], 2 µg/mL; in experiment [5] it was 10 µg/mL; in [6] it was 13.1 µg/mL.
“CR6261 (mAb cloned from Crucell patents) (antibody)”: the EC50 for in vitro neutralization in experiment [7] is 4 µg/mL; in experiment [8], 3.7 µg/mL.

B1: MAB53 (antibody, V domains shown)
VH: QVQLVQSGAEVRKPGSSVKVSCKVSGGIIRKYAINWVRQAPGQGLEWMGGIIAIFNTANYAQKFQGRVTITADESTSTVYMELSSLRSEDTALYYCARGMNYYSDYFDYWGQGSLVTVSP
VL: EIVLTQSPGTLSLSPGERATLSCRASQSVRSNNLAWYQHKPGQAPRLLIFGASSRATGIPDRFSGSGSGTDFTLTISRLEPEDFAVYYCQQYGSSPALTFGGGTKVEIK
As to B1, the dissociation constant (Kd) in [9] was 0.1 nM; in [10] it was 0.5 nM; in experiment [15] it was 0.07 nM; in experiment [16], 0.06 nM; in experiment [17], 6 nM; in [18], 0.03 nM. The results for the Kd in experiment [19] and in experiment [20] were 0.5 nM and 0.2 nM, respectively. For the same molecule, the EC50 for in vitro neutralization was found to be 1.2 µg/mL in [11], 0.1 µg/mL in experiment [12], 0.14 µg/mL in [13] and 0.1 µg/mL in experiment [14]. Moreover, the Potency Difference (MAB53 against CR6261) in experiment [13] amounted to 30 x; in [14], 40 x.

B2: MAB8 (antibody, V domains shown)
VH: EVQLVESGGGLVKPGGSLRLSCAASGFTFSTYTMSWVRQAPGQGLEWVSSITRTSSNIYYADSVEGRFTISRDNAKNSLYLQMHSLRVEDTAVYYCARISGVVGPVPFDYWGQGTLITVSS
VL: DIQMTQSPSSLSASVGDRVTITCRASQTISKYLNWYQQKPGRAPKLLIYSASSLQSGVPSRFTGSGSGTDFTLTITSLQPEDFATYYCQQSYRPSQITFGPGTKVDIK
As for B2, the dissociation constant (Kd) was 9 nM in [16], 16 nM in [21] and 0.2 nM in experiment [17].

B3: MAB579 (antibody, V domains shown)
VH: QVQLVQSGAEVKKPGASVKVSCKTSGYTFTAYTIHWVRQAPGQRLEWMGWINAGNGHTKYSQRFKGRVTITRDTSARTTYMELRSLTSEDTALYFCARGPETYYYDKTNWLNSHPDEYFQHWGHGTQVTVSS
VL: DIQMTQSPSTLSASVGDRVTITCRASQTINNYLAWYQQKPGKAPKLLIYKASSLESGVPSRFSGSGSGTEFTLTISSLQPDDFATYYCQEYNNDSPLTFGGGTKVEIK
As to B3, the dissociation constant (Kd) was 0.6 nM in experiment [22]; 0.2 nM in [23]; 0.8 nM in experiment [24]; 0.2 nM in experiment [25]; 0.4 nM in experiment [26]; 0.2 nM in experiment [41]. Besides, the Kd is 0.7 nM in experiment [42] and 0.4 nM in experiment [43]. Further, the EC50 for in vitro neutralization in [27] came to 15 µg/mL; in [28], 1 µg/mL; in [29], 0.5 µg/mL; in [32], 2 µg/mL; in experiment [34], 0.05 µg/mL; in [36] it was 2 µg/mL. In addition, the EC50 for in vitro neutralization in [37] was 0.8 µg/mL; in [39] it was 0.7 µg/mL. Also, the IC50, MDCK monolayer microneutralization assay in experiment [27] worked out at 15.5 µg/mL; in experiment [28], 1 µg/mL; in experiment [29], 1.6 µg/mL; in experiment [30], 0.9 µg/mL; in experiment [31], 3.9 µg/mL; in [32] it was 2.8 µg/mL. Further, the IC50, MDCK monolayer microneutralization assay in experiment [33] was more than 20 µg/mL; in experiment [34], 0.2 µg/mL; in [35], more than 20 µg/mL; in [36], 1.1 µg/mL; in experiment [37], 0.8 µg/mL; in experiment [38] it was more than 20 µg/mL. In addition, the IC50, MDCK monolayer microneutralization assay was determined as 0.6 µg/mL in experiment [39] and 1.9 µg/mL in experiment [40]. Further, the Potency Difference (MAB579 against CR8020) in experiment [27] was 3 x; in experiment [28], 3 x; in experiment [32] it was 3 x; in experiment [34], 40 x; in experiment [36], 5 x; in experiment [39], 20 x.
